Experimental data published in the supplement of paper PMC10567573.

B1: KCNAB2 (parent)
chain: YVDVVFANRPDPNTPMEETVRAMT

Variants of: B1
Assay: protein stability index of a GFP-peptide fusion (GPS, HEK-293T) (PSI 1-6); higher = more stable
Conditions: c terminus: a fixed tail appended
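Further: lentivirally expressed fusions sorted by FACS into six bins by GFP to DsRed ratio, PSI derived from sequencing read proportions per bin multiplied by bin number.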

Variant	protein stability index
T14V	1.56
T14M	2.65
T14P	2.51
T14C	1.99
T14I	3.12
T14L	2.37
T14E	1.7
T14R	2.23
T14N	3.02
T14A	1.84
T14S	1.93
T14Y	2.4
T14Q	2.12
T14F	2.32
T14D	1.69
T14H	2.77
T14W	1.54
T14K	2.2
T14G	2.04
E18T	1.64
E18D	2.04
E18H	2.97
E18M	3.06
E18Y	2.64

Variant	protein stability index
E18F	2.1
E18N	1.83
E18L	2.56
E18P	2.27
E18C	2.02
E18G	1.75
E18V	2.43
E18R	2.1
E18W	1.85
E18I	2.98
E18A	2.67
E18S	1.99
E18Q	2.09
E18K	2.75
N13A	2
N13G	2.14
N13V	2.44
N13Y	2.31
N13H	2.15
N13I	2.76
N13F	2.09
N13K	2.18
N13T	1.3
N13E	2.5

Variant	protein stability index
N13W	2.88
N13C	1.89
N13D	2.29
N13L	1.96
N13R	1.98
N13Q	2.11
N13M	1.98
N13S	2.34
P10E	2.13
P10D	2.47
P10Y	1.69
P10G	2.65
P10S	1.38
P10T	2.17
P10R	2.13
P10V	1.82
P10I	2.2
P10H	2.12
P10W	3.14
P10F	2.8
P10M	2.62
P10C	2.43
P10Q	1.73
P10N	2.06

Variant	protein stability index
P10L	2.7
P10K	2.27
P10A	1.84
R9K	1.69
R9T	1.7
R9S	2.76
R9P	2.84
R9L	2.27
R9F	2.02
R9N	2.22
R9V	2.96
R9W	2.72
R9M	2.67
R9H	1.66
R9C	1.6
R9D	2.71
R9Y	1.47
R9E	2.15
R9I	2.07
R9G	2.17
R9Q	1.98
R9A	1.78
P15T	1.94
P15S	2.69

Variant	protein stability index
P15Y	2.21
P15C	2.67
P15W	1.78
P15I	1.9
P15K	2.72
P15V	1.87
P15H	1.35
P15L	2.44
P15M	2.28
P15Q	2.1
P15E	1.73
P15F	2.47
P15G	1.91
P15A	2.34
P15R	2.52
P15N	1.97
P15D	1.49
E17A	1.86
E17P	2.17
E17Q	2.14
E17Y	2.5
E17R	2.29
E17T	2.84
E17M	2.65

Variant	protein stability index
E17C	1.62
E17L	1.64
E17G	2.72
E17V	2.06
E17H	2.85
E17I	1.58
E17W	3.15
E17K	2.62
E17S	1.2
E17N	2.76
E17D	2.12
P12V	2.72
P12L	2.51
P12R	1.46
P12M	2.03
P12K	2.16
P12D	1.65
P12A	2.27
P12H	1.37
P12T	1.56
P12N	1.28
P12C	2.08
P12F	2.02
P12E	1.65

Variant	protein stability index
P12Y	2.72
P12I	1.83
P12Q	2.43
P12G	2.31
P12S	1.66
P12W	2.04
M16R	2.54
M16V	1.65
M16N	2.2
M16T	1.33
M16D	1.77
M16F	1.77
M16Y	2.18
M16L	1.86
M16P	1.91
M16W	2.2
M16A	1.8
M16K	1.8
M16S	2.42
M16G	1.95
M16H	1.93
M16E	2.02
M16Q	2.27
